From patent CN106699891A (BEIJING MABWORKS BIOTECH CO LTD, dated 2017) come the findings set out here.

The target of this test is T1, PD-L1-Fc (UniProt Q9NZQ7 19-238, limits assumed).
T1 construct: extracellular domain; not shown: Fc fragment of human IgG
Nature of the test: SPR (Biacore), antibody captured by anti-human Fab on CM5 chip, PD-L1-Fc as analyte, 1:1 binding fit.

T1 sequence (Q9NZQ7 19-238 limits assumed): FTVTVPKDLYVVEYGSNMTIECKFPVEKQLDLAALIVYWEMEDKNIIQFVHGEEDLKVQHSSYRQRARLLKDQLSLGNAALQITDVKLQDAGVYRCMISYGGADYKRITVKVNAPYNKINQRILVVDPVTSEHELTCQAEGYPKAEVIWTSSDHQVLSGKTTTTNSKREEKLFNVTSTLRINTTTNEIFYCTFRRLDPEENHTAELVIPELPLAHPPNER

B1: Mil85-6抗体 (antibody, V domains shown)
VH: EVQLVESGGGLVQPGGSLRLSCAASGFTFADSWIHWVRQAPGKGLEWVAWISPFGGSNYYADSVKGRFTISADTSKNTAYLQMNSLRAEDTAVYYCARRHWPGGFDYWGQGTLVTVSS
VL: DIQMTQSPSSLSASVGDRVTITCRASQSIGTALNWYQQKPGKAPKLLIYTASSLQSGVPSRFSGSGSGTDFTLTISSLQPEDFATYYCQQDNYTPMTFGQGTKVEIK
notes: also called Mil85-6-5C6; 全抗体
In turn, B1 yielded a dissociation constant Kd of 0.429 nM, a koff of 0.000195 s⁻¹ and a kon of 457000 M⁻¹ s⁻¹.
